B1: Histone acetyltransferase SAS2 (Saccharomyces cerevisiae), P40963 (parent)
chain: MARSLSQSLTATTQKLKGKKNGGKGKNKPSAKIKKTQKEMLYGILNERNIRQIQFGLNKKFSTWYGSAVYFDPETKRLGCSETKGQLSSVSNSQYWLDTLFVCEYCFKYTDDQTRFVGHVASCPFQYRVPGKIKYKSPEYTIRRVKGSKYQLFCQCLCLFTKLYLDNKSMYFKVDHYEFYIVYETGSTKPMGFFSKDLVSYQQNNLACILIFPPYQRRGLGLLLIEFSYKLSQLEGVISGPEVPLSPFGLIGYLKYWSQILCWHLIEGDLAHYDKVTLEDLSIVTGMRVNDVILTLKHLNCIGENNQIYLQSLNSWLKLHGTKRNWFKLKDEYLLIDD
partner: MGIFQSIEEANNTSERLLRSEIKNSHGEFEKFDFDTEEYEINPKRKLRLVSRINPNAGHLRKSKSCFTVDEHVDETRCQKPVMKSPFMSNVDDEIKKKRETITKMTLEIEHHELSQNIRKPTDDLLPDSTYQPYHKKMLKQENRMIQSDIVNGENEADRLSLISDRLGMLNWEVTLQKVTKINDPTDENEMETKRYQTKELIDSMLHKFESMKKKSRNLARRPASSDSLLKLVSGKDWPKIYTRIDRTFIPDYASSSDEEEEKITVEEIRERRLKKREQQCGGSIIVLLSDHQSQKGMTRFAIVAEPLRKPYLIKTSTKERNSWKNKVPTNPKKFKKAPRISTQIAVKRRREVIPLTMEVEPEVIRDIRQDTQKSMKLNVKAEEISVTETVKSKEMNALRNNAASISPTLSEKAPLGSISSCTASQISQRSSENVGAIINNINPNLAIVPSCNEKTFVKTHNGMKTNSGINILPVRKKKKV
B2: Histone acetyltransferase SAS2 (Saccharomyces cerevisiae), P40963 (parent)
chain: B1 chain

In one experiment the parent is B1. The note with it: with sas4_yeast SAS4, Q04003.
In the case of P213A;P214V, the “effect of a mutation on the interaction” value was “decreasing interaction”.

For the variant C106L, the “effect of a mutation on the interaction” value was “decreasing interaction”.

In the next experiment the parent is B2. The note with it: with caf1a_yeast RLF2, Q12495.
Chain of caf1a_yeast RLF2, Q12495 (Q12495 whole entry): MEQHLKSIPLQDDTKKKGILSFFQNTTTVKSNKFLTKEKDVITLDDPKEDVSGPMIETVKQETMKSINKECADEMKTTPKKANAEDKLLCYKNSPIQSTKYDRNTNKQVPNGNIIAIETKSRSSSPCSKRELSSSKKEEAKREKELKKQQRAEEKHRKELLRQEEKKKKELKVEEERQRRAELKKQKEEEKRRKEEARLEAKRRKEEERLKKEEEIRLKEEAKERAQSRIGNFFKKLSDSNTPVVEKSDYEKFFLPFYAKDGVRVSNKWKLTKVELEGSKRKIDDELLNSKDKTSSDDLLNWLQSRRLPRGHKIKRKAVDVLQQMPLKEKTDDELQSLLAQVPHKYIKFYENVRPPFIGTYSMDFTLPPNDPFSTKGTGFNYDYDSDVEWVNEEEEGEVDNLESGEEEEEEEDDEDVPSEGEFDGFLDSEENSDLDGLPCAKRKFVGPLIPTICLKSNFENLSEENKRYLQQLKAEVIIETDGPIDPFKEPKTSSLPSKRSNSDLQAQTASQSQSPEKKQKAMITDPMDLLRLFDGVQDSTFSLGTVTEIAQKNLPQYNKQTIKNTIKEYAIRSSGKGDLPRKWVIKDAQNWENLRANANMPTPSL
Turning to C106L, the “effect of a mutation on the interaction” value is given as “decreasing interaction”.

On to P213A;P214V, for which the “effect of a mutation on the interaction” value is “decreasing interaction”.
